What was measured:
N-hCD73-his = molecular target: T1, N-hCD73-his (human, UniProt P21589 26-336); assay: SPR
T1 construct: also called hCD73(26-336)His; CD73(26-336)His; not shown: His tag
T1 sequence: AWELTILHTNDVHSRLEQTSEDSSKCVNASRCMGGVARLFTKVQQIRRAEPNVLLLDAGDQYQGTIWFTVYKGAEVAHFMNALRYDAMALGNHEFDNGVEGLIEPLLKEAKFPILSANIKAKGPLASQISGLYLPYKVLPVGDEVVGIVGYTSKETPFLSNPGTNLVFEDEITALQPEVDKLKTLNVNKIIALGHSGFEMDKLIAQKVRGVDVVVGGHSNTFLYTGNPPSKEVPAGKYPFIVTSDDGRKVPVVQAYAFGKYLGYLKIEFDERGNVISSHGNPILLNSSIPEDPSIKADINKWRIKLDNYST
From the text: One experimental format tested the binding of the N-terminal domain of hCD73 (consisting of residues 26-336 of human CD73; termed N-hCD73) to antibodies that were captured on immobilized protein A surfaces. For these experiments, protein A (Pierce) was immobilized to a density of 3000-4000 RU on flow cells 1-4 of a CM5 sensor chip (GE Healthcare) using standard ethyl(dimethylaminopropyl) carbodiimide (EDC)/N-hydroxysuccinimide (NHS) chemistry, with ethanolamine blocking, in a running buffer of 0.01 M HEPES pH 7.4, 0.15 M NaCl, 3 mM EDTA, 0.005% v/v tween 20. […] The running buffer for the kinetic experiments was 10 mM sodium phosphate, 130 mM sodium chloride, 0.05% tween 20, pH 7.1. The surfaces were regenerated after each cycle using two 30 s pulses of 10 mM glycine pH 1.5 at a flow rate of 30 μl/min. Sensogram data was double-referenced and then fitted to a 1:1 Langmuir model using Biacore T100 evaluation software v2.0.4, to determine the association rate constant (ka), the dissociation rate constant (kd), and the equilibrium dissociation constant (KD).

human CD73 on cells [1] = molecular target: T2, human CD73 on cells (human, UniProt P21589 27-549); assay: cell-based or functional assay
T2 sequence: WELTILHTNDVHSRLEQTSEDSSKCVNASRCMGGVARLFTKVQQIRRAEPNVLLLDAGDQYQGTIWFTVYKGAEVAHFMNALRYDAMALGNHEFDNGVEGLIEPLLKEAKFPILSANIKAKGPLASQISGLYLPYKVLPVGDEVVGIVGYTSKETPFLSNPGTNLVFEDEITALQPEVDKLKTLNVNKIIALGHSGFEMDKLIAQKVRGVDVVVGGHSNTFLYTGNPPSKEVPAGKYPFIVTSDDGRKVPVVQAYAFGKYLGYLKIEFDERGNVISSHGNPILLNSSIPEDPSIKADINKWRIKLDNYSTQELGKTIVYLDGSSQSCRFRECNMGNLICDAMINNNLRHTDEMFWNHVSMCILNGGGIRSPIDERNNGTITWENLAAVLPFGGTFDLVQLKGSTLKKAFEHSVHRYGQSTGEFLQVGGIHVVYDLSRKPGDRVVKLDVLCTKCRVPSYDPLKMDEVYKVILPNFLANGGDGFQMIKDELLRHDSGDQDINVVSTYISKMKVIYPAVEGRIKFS

human CD73 on cells [2] = molecular target: T2, human CD73 on cells; assay: cell-based or functional assay; remark: listed apart in the source

B1: 11F11 (antibody, human IgG2, kappa, V domains shown)
VH: QVQLVESGGGVVQPGRSLRLSCATSGFTFSNYGMHWVRQAPGKGLEWVAVILYDGSNKYYPDSVKGRFTISRDNSKNTLYLQMNSLRAEDTAVYYCARGGSSWYPDSFDIWGQGTMVTVSS
VL: DIQMTQSPSSLSASVGDRVTITCRASQGISSWLAWYQQKPEKAPKSLIYAASSLQSGVPSRFSGSGSGTDFTLTISSLQPEDFATYYCQQYNSYPLTFGGGTKVEIKR
notes: IgG2; also called 11F11-2
- Kd (N-hCD73-his): 1.1 nM
- Ymax, cAMP HTRF assay (100 nM 11F11 set to 100%) (human CD73 on cells [1]): 76%
- Ymax, CD73 internalization (100 nM 11F11 set to 100%) (human CD73 on cells [2]): 98%
